Tests used:
[1] = biological target: T1, human IL-17RB protein (recombinant, R&D systems) (human); assay: BLI (Octet RED96), SM17 captured via anti-human Fab CH1, IL17RB in solution; trial 1
T1 construct: Bought protein; also called hIL17RB
T1 sequence (Q9NRM6 whole entry, looked up): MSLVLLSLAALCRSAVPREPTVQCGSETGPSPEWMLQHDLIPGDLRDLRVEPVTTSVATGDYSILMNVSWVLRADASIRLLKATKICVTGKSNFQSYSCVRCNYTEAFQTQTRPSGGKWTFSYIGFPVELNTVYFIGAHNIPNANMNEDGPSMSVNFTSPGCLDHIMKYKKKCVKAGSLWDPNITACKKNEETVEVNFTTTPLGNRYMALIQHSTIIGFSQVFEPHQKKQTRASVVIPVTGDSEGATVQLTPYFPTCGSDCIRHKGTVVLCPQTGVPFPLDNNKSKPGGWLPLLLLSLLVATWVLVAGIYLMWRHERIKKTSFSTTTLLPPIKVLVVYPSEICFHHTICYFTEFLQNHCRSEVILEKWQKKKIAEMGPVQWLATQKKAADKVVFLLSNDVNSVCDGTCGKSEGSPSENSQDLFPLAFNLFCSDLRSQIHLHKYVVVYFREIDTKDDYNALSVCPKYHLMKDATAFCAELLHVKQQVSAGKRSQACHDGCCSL
Excerpt: (§1) Irrelevant antibody (SM03, anti-human CD22 chimeric IgG1 antibody, SinoMab BioScience Limited) was used as the control reference.

[2] = biological target: T2, cynomolgus monkey IL-17RB protein (recombinant, R&D systems) (cynomolgus monkey, UniProt A0A2K5TUK1 18-289); assay: BLI (Octet RED96), SM17 captured via anti-human Fab CH1, IL17RB in solution; trial 2
T2 construct: also called cynomolgus IL17RB; Cyno-IL17RB
T2 sequence: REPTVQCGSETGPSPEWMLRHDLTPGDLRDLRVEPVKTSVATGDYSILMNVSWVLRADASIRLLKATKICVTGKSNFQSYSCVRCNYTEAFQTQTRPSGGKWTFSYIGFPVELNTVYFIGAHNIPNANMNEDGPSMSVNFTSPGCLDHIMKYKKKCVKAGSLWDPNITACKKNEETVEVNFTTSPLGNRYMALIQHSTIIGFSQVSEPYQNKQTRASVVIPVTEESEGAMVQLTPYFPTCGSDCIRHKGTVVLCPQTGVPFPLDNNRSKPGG
Excerpt: as §1

[3] = biological target: T1, human IL-17RB protein (recombinant, R&D …); assay: as above
Excerpt: as §1

[4] = biological target: T3, human IL-17 receptor subunit D (human, UniProt Q8NFM7 28-299, limits assumed); assay: ELISA, coated receptor; SM17 at 0.016 µg/mL; well 1
T3 construct: also called IL17RD; hIL 17RD
T3 sequence (looked up): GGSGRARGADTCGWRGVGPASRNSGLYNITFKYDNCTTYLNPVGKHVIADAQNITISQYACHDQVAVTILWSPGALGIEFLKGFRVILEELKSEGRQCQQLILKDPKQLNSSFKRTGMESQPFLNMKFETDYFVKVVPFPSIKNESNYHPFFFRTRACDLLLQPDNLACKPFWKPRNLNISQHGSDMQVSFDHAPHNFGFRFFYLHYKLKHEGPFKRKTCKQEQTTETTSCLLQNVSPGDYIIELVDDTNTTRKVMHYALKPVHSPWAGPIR

[5] = biological target: T4, human IL-17 receptor subunit C (human, UniProt Q8NAC3-2 21-467, limits assumed); assay: as above
T4 construct: also called IL17RC; hIL17RC
T4 sequence (looked up): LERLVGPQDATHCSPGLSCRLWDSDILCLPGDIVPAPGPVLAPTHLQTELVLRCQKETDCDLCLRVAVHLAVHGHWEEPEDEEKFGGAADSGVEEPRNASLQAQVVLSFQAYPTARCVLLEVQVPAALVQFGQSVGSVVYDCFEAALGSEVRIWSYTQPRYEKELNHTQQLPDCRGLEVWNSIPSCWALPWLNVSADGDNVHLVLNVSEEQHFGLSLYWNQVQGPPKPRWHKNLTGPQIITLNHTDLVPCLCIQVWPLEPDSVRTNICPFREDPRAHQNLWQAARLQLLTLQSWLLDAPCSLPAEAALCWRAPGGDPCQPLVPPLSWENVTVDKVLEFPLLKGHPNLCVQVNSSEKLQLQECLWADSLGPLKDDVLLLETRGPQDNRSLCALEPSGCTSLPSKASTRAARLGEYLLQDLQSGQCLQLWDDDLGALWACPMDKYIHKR

[6] = biological target: T5, human IL-17 receptor subunit A (human, UniProt Q96F46 33-320); assay: as above
T5 construct: also called IL17RA; hIL17RA

[7] = biological target: T6, human IL-17 receptor subunit E (human, UniProt Q8NFR9 24-454, limits assumed); assay: as above
T6 construct: also called hIL17RE
T6 sequence (looked up): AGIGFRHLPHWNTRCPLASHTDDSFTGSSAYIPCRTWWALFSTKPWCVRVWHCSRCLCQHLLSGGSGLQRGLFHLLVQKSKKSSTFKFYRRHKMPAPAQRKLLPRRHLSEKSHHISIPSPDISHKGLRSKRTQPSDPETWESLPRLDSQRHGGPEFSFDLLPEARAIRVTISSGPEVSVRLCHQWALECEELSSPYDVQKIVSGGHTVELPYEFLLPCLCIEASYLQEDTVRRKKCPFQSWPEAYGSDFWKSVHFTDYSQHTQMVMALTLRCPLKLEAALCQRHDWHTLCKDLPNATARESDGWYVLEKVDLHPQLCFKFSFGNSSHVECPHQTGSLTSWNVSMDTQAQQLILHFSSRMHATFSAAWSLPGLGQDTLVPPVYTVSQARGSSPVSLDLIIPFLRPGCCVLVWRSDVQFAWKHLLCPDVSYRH

[8] = biological target: T1, human IL-17RB protein (recombinant, R&D …); assay: as above
[9] = biological target: T5, human IL-17 receptor subunit A; assay: ELISA, coated receptor; SM17 at 0.4 µg/mL; well 2
[10] = biological target: T1, human IL-17RB protein (recombinant, R&D …); assay: ELISA, coated receptor; SM17 at 0.4 µg/mL; well 2

B1: SM17 (antibody, human IgG4 S228P, kappa, V domains shown)
VH: QVQLVQSGAEVKKPGASVKVSCKASGYTFISYWMNWVRQAPGQGLEWMGRIDPYDSEIQYNQKFKDRVTMTRDTSISTAYMELSRLRSDDTAVYYCARSGGFDWFAYWGQGTLVTVSS
VL: DIQMTQSPSSLSASVGDRVTITCRASENINSNLAWYQQKPGKAPKLLLYDVTNLADGVPSRFSGSGSGTDYTLTISSLQPEDFATYYCQHFWGPPYTFGGGTKVEIKR
notes: other paragraphs and claim 15 call the same entries VH and VL; also called humanized anti-IL17RB monoclonal antibody
A Kd [1] of 0.194 nM, a koff [1] of 4.3e-05 s⁻¹ and a kon [1] of 222000 M⁻¹ s⁻¹ were found for B1 in this work. For the same binder, the Kd [2] was 5.11 nM, the koff [2] was 0.000215 s⁻¹ and the kon [2] was 42100 M⁻¹ s⁻¹. The Kd [3] was 0.546 nM, the koff [3] was 9.98e-05 s⁻¹ and the kon [3] was 183000 M⁻¹ s⁻¹. The “OD 450 nm Absorption” value [4] was 0.07 OD450, the “OD 450 nm Absorption” value [5] was 0.09 OD450 and the “OD 450 nm Absorption” value [6] was 0.01 OD450. The “OD 450 nm Absorption” value [7] was 0 OD450, the “OD 450 nm Absorption” value [8] was 0.35 OD450 and the “OD 450 nm Absorption” value [9] was 0.22 OD450. The “OD 450 nm Absorption” value [10] was 1.31 OD450.
